# Experiment: yeast display, Sf9 membrane polyspecificity reagent, FACS + sequencing; frameworks hold sequencing errors
# Outline: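 Sorting gates, low and high (top ~1%), were placed on anti-HA fluorescence to track expression and on streptavidin fluorescence to track reagent binding. A clone's polyreactivity label is taken from the gate it came out of. The reagent was 10% biotinylated, detergent-solubilized Sf9 membrane, applied for 1 hour at 4 °C to galactose-induced yeast display cells.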
row,Sequence,polyreactivity (PSR sort gate)
1,QVQLVESGGGLVQAGGSLRLSCAASGFTFYGYAMAWYRQAPGTERELVAAITRRGGNTYYADSVKGRFTISRDNAKNTVYLQMNSLKPEDTAVYYCNAVLRYGHGPYQKGDYWGQGSQVTVSS,high polyreactivity
2,QVQLVESGGGLVQAGGSLRLSCAASGSTFYYYAMGWYRQAPGKERELVAAIDRDDRTNYADSVKGRFTISRDNAKNTVYLQMNSLKPEDTAVYNSAADSSERRLLDFDYWGQGTQVTVSS,low polyreactivity
3,QVQLVKSGGGLVQAGGSLRLSCAASGFIIPEYTMGWYRQAPVKERELVAAISGSGGSTYYADSVKGRFTISRDNAKNTVYLQMNSLKPEDTAVYYCAASYAVSRYLQTYAHAHGYWGQGTQVTVSS,low polyreactivity
4,QVQLVESGGGLVQAGGSLRLSCAASGRIFWGNGMGWYRQAPGKEREFVAAISKSGGSTYYADSVKGRFTISRDNAKNTVYLQMNSLKPEDTAVYYCNARTSRYRRGGDSWGQGTQVTVSS,high polyreactivity
5,QVQLVESGGGLVQAGGSLRLSCAASGYISDTNAMGWYRQAPGKEREFVAVISSSVGSTYYADSVKGRFTISRDNAKNTVYLQMNSLKPEDTAVYYCNAEFNTVFLYWSLDSVRGYDYWGQGTQVTVSS,high polyreactivity
6,QVQLVESGGGLVQAGGSLRLSCAASGIIFSWYDMGWYRKAPGKERELVAAISSGDRTNYADSVKGRFTISRDNAKNTVYLQMNSLKPEDTAVYYCAADLFPIAGEYDYWGQGTQVTVSS,high polyreactivity
7,QVQLVESGGGLVQAGGSLRLSCAASGFIFRYYAMGWARQAPAKERELVAAISWSGTRTFYADSVKARFTISRDNAKNTVYLQMNSLKPEDTAVYYCAAETTGYDSYIQYEYWGQGTQVTVSS,high polyreactivity
8,QVQLVESGGGLVQAGGSLRLSCAASGIIFGTNAMGWYRQAPGKERELVAYITSGGSTYADSVKGRFTISRDKAKNTVYLQMNSLKPEDTAVSYCNADTGKWGGNGWYEFDYWGQGTQVTVSS,low polyreactivity
9,QVQLVESGGGIVQAGGSLRLSCAASGYTFAKYAMGWYRQEPGKERELVAAISSSGGRTYYADSVKGRFTISRDIAKNTVYLQMNSLKPEDTAVYYCNAYGQRDYWGQGSQVTVSS,high polyreactivity
10,QVQLVESGGGLVQAGGSLRISCAASGYNSYSNAMGWYRQAPGKERELVASILSGGSTNYADSVKGRFTISRDNAKNTVYLQMNSLKPEDTAVSYCATRVRTRTGYQYYYWGQGTQVTVSS,high polyreactivity
11,QVQLVESGGGLVQAGGSLRLSCAASGRIFSRYAMGWYRQAPGKEREMVAAIRSNGGRTYYADSVKGRFTISRDNAKNTVYLQMNSLKPEDTAVYYCAAAGGGKVSYRDYDYWGQGTQVTVSS,high polyreactivity
12,QVQLVESGGGLVQAGGSLRLSCAASGSIFRINAMGWYRQAPGKEREFVAAIRGSGGRTYYADSVKGRFTISRDNAKNTVYLQMNSLKPEDTAVYYCAADFSYRYFQRTSWPFDYWGQGTQVTVSS,high polyreactivity
13,QVQLEESGGGLVQAGGSLRLSCAASGLIFRYYVMGWYRQAPGKERELVAGITSSGGSTYYADSVKGRFTISRDNAKNTVYLQMNSLKPEDTAVYYCNKGGISGRDYWGQGTQVTVSS,high polyreactivity
14,QVQLVESGGGLVQAGGSLRLSCAASGRTFVGYAMGWYRQAPGKERELVAAISTSGGRTYYADSVKGRFTISRDNEKYTVYLQMNSLKPEDTAVYYCAAGFRASIGYVTEYYWGQGTQVTVTS,high polyreactivity
15,HVQLVESGGGLVQAGGSLRLSCAASGFTIQRYAMGWYRQAPGKERELVAAITSGGSTYYADSVKGRFTISRDNAMNTVYLQMNSLKPEDTAVYYCATRAVWSSWGRRYDSWGQGTQVTVSS,high polyreactivity
16,QLQLVESGGGLVQAGGSLRLSCAASGRTFYSYAKGWSRPAPGTDRQFVAAISVRGVITYYADSVKGRFTISRDNAKNTVYLQMNSLKPEDTAVDYCAADWSGYYTFDYWGQGTQVTVSS,low polyreactivity
17,QVQLVESGGGLVQAGGSLRLSCAASGSTFQGYAMGWYRQAPGKERELVARISYTGASTYADSVKGRFTISRDNAKNTVYLQMNSLKPDDTAVYYCNAGGYRYRSYDYWGQGTQVTVSS,high polyreactivity
18,QVQLVESGGGLVQAGGSLRLSCAASGSTFGRYAMGWYRQAPGKERELVAAITRSGGRTYYADSLKGRFTISRDNAKNTVYLQMNSLKPEDTAVYYCAAVGNLYYTSHWQYDYWGQGTQVTVSS,high polyreactivity
19,QVQLVESGGCLVQAGGSLRLSCAASGSTFTIYVMGGYRQAPGKERELVAAITWSDGITYYADSVKGRFTISRDNAKNTVYLQMNSLKPEDTAVYYCRDSHPSYRPGTVRYDYWGQGTQVNVSS,low polyreactivity
20,QVQLVESGGGLVQARGSLRLSFAASGGIFYSYAMGRYRQAPGKEREFVAAIRRSGGRTYYADSVKGRFTISRDNAKNTVYLQMNSLKPEDTAVYYCAADGWYSGGHDYWGQGTQVTVSS,high polyreactivity
21,QVQLVESGGGLVQAGGSLRLSCAASGFIYVYNAMGWYRKAPGKEREFVAGISRSGGNTYYADSVKGRFTISRDNAKNTVYLQMNSLKPEDTAVYYCAVVNRRFGFPNVALRSNYGDYWGQGTQVTVSS,low polyreactivity
22,QVQLVETAGGLVQAGGSLRLSCAASGRIFYGYTLGWYRPAPGKERELVAAISRGGSTYYADSVKGRFTISRDNAKNTVYLQMNSLKPEDPAVYYCAKTYRRRYYPYFHFRYYWGQGTQVTVSS,high polyreactivity

row,Sequence,polyreactivity (PSR sort gate)
1,QVQLVESGGGLVQAGGSLRLSCAPSGSTFNFNAMGWYRQAPGKERELVAAISKSGTRTYYADSVKGRFTISRDNAKNTVYLQMNSLKPEDTAVYYCAAPAISSYDHGYWGQGTQVTVSS,high polyreactivity
2,QVQLVESGGGLVQAGGSLRLSCAASGSIFYYNAMGWYRPAPGKERELVAAITWSGGTYYADSVKGRFTISRDNAKNTVYLQMNSLKPEDTAVYYCNGARLYKWSFTPKFEMDHWGQGTQVTVSS,low polyreactivity
3,QVQLVESGGGLVQAGGSLRLSCAASGRIFGKYVMGWYRQAPGKERELVAAISRSGGSTSYADSVKGRFTISRDNAKNTVYLQMNSLKPEDTAVYYCAASPAGYLAPRGYYWGQGTQVTVSS,high polyreactivity
4,QVQLVESGGGLVQAGGSLRLSCAASGRIFWVYAMGWYRQAPGKERELVAAISLSGGLTYYADSVKGRFTITRDNAKNTVYLQMNSLKPEDTAVYYCNAVYPKRGGGRIVDYWGEGTQVTVSS,high polyreactivity
5,QVQLVESGGGLVLAGGSLRLSCAASGLIFAVYAMGWYRQAPGKERELVAGISASAASTYYADSVKGRFTISRDNAKNTVYLQMNSLKPEDTAVYYCAAGFYRRGKYDYWGQGTQVTVSS,high polyreactivity
6,QVQLVESGGGLVQAGGSLRLSCAASALTFGSNAMGWYRQAPGKERELVAAISRSGGTTYYADSVKGRFTISRDNAKNTVYLQMNSLKPEDTAVYYCATRPYSPWRHYYWGQGTQVTVSS,high polyreactivity
7,QVQLQESGCGLVQAGGSLRLSCAASGYISSWYPMGWYRQAPGKEREFVATIAPGATTYYADSVKGRFTISRDYSINTVYLQMNSLKPEDTAVYYCAAGPENNDFYSYWGQGTQVTVSS,low polyreactivity
8,QVQLVESGRGLVQAGGSLRLSCAPSGSTIQDYAMGWYRQAPGKERELVAAISWRSDITYYAESVKGRFTISRDNAKNTVYLQMNSLKPEDTAVYYCAADNSYHWLDREFDYEFDYWGQGTQVTVSS,high polyreactivity
9,QVQLVESGGGLVQAGGSLRLSCAASGRIFTLYAMGWYRQAPGKERELVAGISRSGGSTYYADSVKGRFTISRDNAKNTVYFQMNSLKPEDTAVYYCNAVPIYYAWRRNKPFDYWGQGTQVTVSS,low polyreactivity
10,QVHLVESGGGLVQAGGSLRLSCAASGSIYPYTMGWYRQAPGKERELVAGITRSGGRTYYADSVKGRFTISRDNAKNTVYLQMNSLKPEDTAVYYCAAGTTAWYWSEYYYWGQGTQVTVSS,high polyreactivity
11,QVQLVESGGGLVQAGGSLRLSCAASGSIFGKNAMGWYRQAPGKERELVAAITRRGGSTYYADSVKGRFTISRDNAKNTVYLQMNSLKPEDTAVYYCNALLTGGYQDSYPDDYWGQGTQVTVSS,high polyreactivity
12,QVQLVESGGGLVQAGGSLRLSCAASGSIFTFYAMRWYRQAPGKERELVATINRIGGNRYYADSVKGRFTISRDNAKNTVYLQMNSLKPEDTAGYYCAAKPTYRGYGYGSWGQGTQVNVSS,low polyreactivity
13,QVQLVESGGGLVQAGGSLRLSCAASGRIIVKYAMRSYRQAPGKERELVAAITNSGGRTYYAACVKGRFTISRDNAKNTVYFQMNSLKPEDTAVYYCAALFHASTRQMDYWGQGTQVTVSS,high polyreactivity
14,QVQLVESGGGLVQAGGSLRLSCAASGSIIGDNTKGWYRQAPGKERELVAAISWRGGSTYYADSVKGRFTISLDNAKNTVFLQMNSLKPEDTAVYYCIGGPGGYDYWGQGSQVTVSS,low polyreactivity
15,QVQLVESGGGLVQAGGSLRLSCAASGFAFSYYAMGWYRQAPGKEREFVASIDWSGGSTYYADSVKGRFTISRDNAKNTVFLQMNSLKPEDTAVYYCAAELDYFPGYDYWGQGTQVTVSS,low polyreactivity
16,QVQLVESGGGLVQAGGSLRLSCAASGSTFQLYAMGWYRQAPGKERELVAAISGIGDSTYYADSVKGRFTISRDNAKNTVYLQMNSLKPEDTAVYYCAREFSDGLSGKFDYWGHGTQVTVSS,low polyreactivity
17,QVQLVESGGGLVQAGGSLRLSCAASGSTFYLYAMGWYRQAPGKERELVAAISRGGTTYYADSVKGRFTISRDNAKNTVYLKMNSLKPEDTAVYYCAARRPWWYGGGMDYWGQGTQVTVSS,high polyreactivity
18,QVQQQESGGGLVQAGGSLRLSCAASGTIFQLTVMGRYRQAPGKERELVASIDYGGNTNYADSVKGRFTISRDNAKNSVYLQKNSMKPEDTEVYYCEASYESWTTHPYWGQGTQVTVSS,low polyreactivity
19,QVQLVESGGGLVQAGGSLRLSCAASGSIFYANAMGWYRQAPGKERELVAAISRSGGRTYYADSVKGRFTISRDNSKNTVYLQMNSLKPEDTAVYYCAADTGRYRDSNYWGQGTQVTVSS,high polyreactivity
20,QVQLVESGGGLVQAGGSLLLSCAASGYTFGTYDMGWYRQAPGKERELVAAISIGGSTNYADSVKGRFTISRDNAKNTVYLQMNSLKPEDTAVYYCAAEVNVGTLLLSVIVEDGDYWGQGTQVTVSS,low polyreactivity
21,QVQLVESGGGLVQAGGSLRLSCAASGNTFFPYTMGWYRQAPGKERELVAAITWSGVSTYYADSVKGRFTISRDNAKNTVYLQMNSLKPEDTAVYYCAAGPGYVRYPRSGVWYVTLYDYWGQGTQVTVSS,high polyreactivity

# From the nanobody polyreactivity screen of Harvey et al. (2022)
